Laboratory results from patent publication US20230257470A1 (published 2023).
Changes are numbered by the printed parent chain. Numbers in names are those of the source.

T1: human FcγRIIa type H (human, UniProt P12318 36-217)
T1 construct: also called FcyRIIaH; FcγRIIa(H)
T1 sequence: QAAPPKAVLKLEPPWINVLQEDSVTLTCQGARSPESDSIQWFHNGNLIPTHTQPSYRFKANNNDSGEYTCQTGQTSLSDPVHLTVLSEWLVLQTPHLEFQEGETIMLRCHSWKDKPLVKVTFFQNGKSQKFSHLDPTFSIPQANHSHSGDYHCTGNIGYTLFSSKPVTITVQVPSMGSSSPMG

T2: human FcγRIIb (human, UniProt P31994 43-217, limits assumed)
T2 construct: also called FcyRIfb; FcγIIB
T2 sequence: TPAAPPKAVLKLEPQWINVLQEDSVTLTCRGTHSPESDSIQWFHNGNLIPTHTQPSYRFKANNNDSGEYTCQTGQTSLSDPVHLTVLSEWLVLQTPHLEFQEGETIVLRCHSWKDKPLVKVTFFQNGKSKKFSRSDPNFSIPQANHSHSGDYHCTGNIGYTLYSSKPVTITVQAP

T3: human FcγRIIa(R) (allotype R131) (human, UniProt P12318 36-217)
T3 construct: Soluble analyte in SPR; also called hFcgRIIa(R); FcgRIIaR
T3 chain: T1 sequence with H133R

T4: human FcγRIIa(H) (allotype H131) (human, UniProt P12318 36-217)
T4 construct: Soluble analyte in SPR; also called hFcgRIIa(H); FcgRIIaH
T4 sequence: T1 sequence

T5: human FcγRIIb (human, UniProt P31994 43-217, limits assumed)
T5 construct: Soluble analyte in SPR; also called hFcgRIIb; FcgRIIb
T5 sequence: T2 sequence

B1: IL6R-BP116/IL6R-L (antibody, human IgG1, name in EU numbering)
heavy: QVQLQESGPGLVKPSETLSLTCAVSGHSISHDHAWSWVRQPPGEGLEWIGFISYSGITNYNPSLQGRVTISRDNSKNTLYLQMNSLRAEDTAVYYCARSLARTTAMDYWGEGTLVTVSSASTKGPSVFPLAPSSKSTSGGTAALGCLVKDYFPEPVTVSWNSGALTSGVHTFPAVLQSSGLYSLSSVVTVPSSSLGTQTYICNVNHKPSNTKVDKKVEPKSCDKTHTCPPCPAPELLGGDSVFLFPPKPKDTLMISRTPEVTCVVVDVSHEDPEVKFNWYVDGVEVHNAKTKPREEQYNSTYRVVSVLTVLHQDWLNGKEYKCKVSNTALPAPIEKTISKAKGQPREPQVYTLPPSRDELTKNQVSLTCLVKGFYPSDIAVEWESNGQPENNYKTTPPVLDSDGSFFLYSKLTVDKSRWQQGNVFSCSVMHEALHNHYTQESLSLSP
light: DIQMTQSPSSLSASVGDRVTITCRASQDISSYLNWYQQKPGKAPKLLIYYTSRLHSGVPSRFSGSGSGTDFTFTISSLQPEDIATYYCQQGNTLPYTFGQGTKVEIK
B2: IL6R-BP142/IL6R-L (antibody, human IgG1, name in EU numbering)
heavy: B1 heavy with T328N
light: B1 light
B3: IL6R-BP911/IL6R-L (antibody, human IgG1, name in EU numbering)
heavy: B1 heavy with T328K, A332K
light: B1 light
B4: IL6R-BP118/IL6R-L (antibody, human IgG1, name in EU numbering)
heavy: B1 heavy with T328S
light: B1 light
B5: IL6R-BP121/IL6R-L (antibody, human IgG1, name in EU numbering)
heavy: B1 heavy with T328Q
light: B1 light
B6: IL6R-BP119/IL6R-L (antibody, human IgG1, name in EU numbering)
heavy: B1 heavy with T328M
light: B1 light
B7: IL6R-G1d/IL6R-L (antibody, human IgG1)
heavy: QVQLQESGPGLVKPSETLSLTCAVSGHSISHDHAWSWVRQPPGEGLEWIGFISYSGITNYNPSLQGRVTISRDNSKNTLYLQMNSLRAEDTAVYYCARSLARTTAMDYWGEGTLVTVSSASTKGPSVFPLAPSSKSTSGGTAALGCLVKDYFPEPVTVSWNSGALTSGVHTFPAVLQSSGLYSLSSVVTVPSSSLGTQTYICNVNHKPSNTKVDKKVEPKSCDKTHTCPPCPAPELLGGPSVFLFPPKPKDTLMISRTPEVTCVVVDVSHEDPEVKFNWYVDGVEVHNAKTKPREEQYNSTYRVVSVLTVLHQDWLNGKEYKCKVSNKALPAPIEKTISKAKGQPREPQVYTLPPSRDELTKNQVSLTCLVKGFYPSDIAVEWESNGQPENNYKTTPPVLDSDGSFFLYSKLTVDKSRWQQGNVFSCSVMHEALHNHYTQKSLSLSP
light: B1 light
notes: Anti-human IL-6 receptor IgG1 with the G1d constant region (C-terminal Gly and Lys removed); also called IgG1
B8: IL6R-BP136/IL6R-L (antibody, human IgG1, name in EU numbering)
heavy: B1 heavy with T328A
light: B1 light
B9: GpH7-B3 variant P329H / GpL16-k0 (antibody, human IgG1)
heavy: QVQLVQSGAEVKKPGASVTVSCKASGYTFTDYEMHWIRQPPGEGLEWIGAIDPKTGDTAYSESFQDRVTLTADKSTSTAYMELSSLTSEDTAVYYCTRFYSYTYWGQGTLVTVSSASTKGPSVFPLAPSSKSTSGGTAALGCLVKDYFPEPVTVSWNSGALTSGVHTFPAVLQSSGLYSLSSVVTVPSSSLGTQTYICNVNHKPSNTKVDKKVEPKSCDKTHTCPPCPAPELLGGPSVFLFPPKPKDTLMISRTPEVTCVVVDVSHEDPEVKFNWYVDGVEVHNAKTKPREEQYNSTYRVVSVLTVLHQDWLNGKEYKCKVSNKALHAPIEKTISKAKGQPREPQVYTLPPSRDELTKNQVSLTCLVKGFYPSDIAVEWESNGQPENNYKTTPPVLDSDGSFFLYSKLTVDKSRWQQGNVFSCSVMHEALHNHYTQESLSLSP
light: DIVMTQSPLSLPVTPGEPASISCQASESLVHSNRNTYLHWYLQKPGQSPQLLIYKVSNRFSGVPDRFSGSGSGTDFTLKISRVEAEDVGVYYCSQNTHVPPTFGQGTKVEIE
notes: Anti-glypican-3 human IgG1 with B3 constant region (G1d with K439E); position by EU numbering
B10: GpH7-B3 variant P331G / GpL16-k0 (antibody, human IgG1)
heavy: not shown
light: B9 light
notes: Anti-glypican-3 human IgG1 with B3 constant region; position by EU numbering
B11: GpH7-B3 variant P329N / GpL16-k0 (antibody, human IgG1)
heavy: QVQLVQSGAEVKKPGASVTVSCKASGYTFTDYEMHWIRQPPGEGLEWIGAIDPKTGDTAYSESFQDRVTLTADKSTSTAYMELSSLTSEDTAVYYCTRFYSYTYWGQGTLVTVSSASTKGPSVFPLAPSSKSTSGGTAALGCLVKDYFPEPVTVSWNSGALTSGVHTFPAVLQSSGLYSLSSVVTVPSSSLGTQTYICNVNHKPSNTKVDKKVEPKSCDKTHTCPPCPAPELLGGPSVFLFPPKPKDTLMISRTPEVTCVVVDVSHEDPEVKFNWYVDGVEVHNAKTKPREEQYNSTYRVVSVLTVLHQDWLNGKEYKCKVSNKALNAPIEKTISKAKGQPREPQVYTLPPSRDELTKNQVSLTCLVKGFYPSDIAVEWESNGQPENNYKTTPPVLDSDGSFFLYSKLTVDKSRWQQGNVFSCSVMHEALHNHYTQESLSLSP
light: B9 light
notes: as for B10
B12: GpH7-B3 variant P329W / GpL16-k0 (antibody, human IgG1)
heavy: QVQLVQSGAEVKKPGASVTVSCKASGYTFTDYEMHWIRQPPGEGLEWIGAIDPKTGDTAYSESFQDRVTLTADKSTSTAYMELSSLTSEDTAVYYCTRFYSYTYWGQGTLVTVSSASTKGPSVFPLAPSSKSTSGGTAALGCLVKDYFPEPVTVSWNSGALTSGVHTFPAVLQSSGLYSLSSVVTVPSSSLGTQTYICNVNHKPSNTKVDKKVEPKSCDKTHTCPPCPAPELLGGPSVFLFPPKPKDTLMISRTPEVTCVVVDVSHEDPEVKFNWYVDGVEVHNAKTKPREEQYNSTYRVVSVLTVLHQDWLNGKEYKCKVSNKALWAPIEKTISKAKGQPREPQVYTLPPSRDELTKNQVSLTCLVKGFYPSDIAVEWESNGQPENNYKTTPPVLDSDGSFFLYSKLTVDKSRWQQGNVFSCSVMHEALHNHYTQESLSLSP
light: B9 light
notes: as for B10
B13: GpH7-B3 variant P329D / GpL16-k0 (antibody, human IgG1)
heavy: not shown
light: B9 light
notes: as for B10
B14: GpH7-B3 variant P329G / GpL16-k0 (antibody, human IgG1)
heavy: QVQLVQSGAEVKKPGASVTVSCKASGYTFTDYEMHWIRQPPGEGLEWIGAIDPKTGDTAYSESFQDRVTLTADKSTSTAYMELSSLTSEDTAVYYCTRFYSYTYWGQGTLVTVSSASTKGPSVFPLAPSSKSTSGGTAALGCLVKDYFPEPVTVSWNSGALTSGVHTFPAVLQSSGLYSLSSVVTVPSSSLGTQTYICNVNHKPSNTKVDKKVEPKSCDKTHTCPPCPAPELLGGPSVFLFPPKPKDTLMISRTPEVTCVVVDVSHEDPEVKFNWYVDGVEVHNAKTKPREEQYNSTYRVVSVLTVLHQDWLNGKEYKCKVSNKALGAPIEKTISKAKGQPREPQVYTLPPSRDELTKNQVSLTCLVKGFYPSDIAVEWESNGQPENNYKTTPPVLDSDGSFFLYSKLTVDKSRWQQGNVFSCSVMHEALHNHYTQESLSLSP
light: B9 light
notes: as for B10
B15: GpH7-B3 variant P329E / GpL16-k0 (antibody, human IgG1)
heavy: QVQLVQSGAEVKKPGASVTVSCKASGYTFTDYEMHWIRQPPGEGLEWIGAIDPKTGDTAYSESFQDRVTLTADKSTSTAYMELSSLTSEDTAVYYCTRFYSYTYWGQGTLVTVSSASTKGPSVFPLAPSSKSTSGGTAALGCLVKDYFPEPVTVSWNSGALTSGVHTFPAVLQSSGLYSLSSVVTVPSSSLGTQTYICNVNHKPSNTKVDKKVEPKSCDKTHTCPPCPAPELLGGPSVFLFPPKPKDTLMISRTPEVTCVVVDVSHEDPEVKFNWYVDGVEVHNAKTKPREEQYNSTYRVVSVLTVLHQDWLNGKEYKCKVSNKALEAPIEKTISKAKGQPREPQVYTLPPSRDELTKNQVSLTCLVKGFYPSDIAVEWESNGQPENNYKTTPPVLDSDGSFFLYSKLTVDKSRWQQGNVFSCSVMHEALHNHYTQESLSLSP
light: B9 light
notes: as for B10
B16: GpH7-B3 variant I332K / GpL16-k0 (antibody, human IgG1)
heavy: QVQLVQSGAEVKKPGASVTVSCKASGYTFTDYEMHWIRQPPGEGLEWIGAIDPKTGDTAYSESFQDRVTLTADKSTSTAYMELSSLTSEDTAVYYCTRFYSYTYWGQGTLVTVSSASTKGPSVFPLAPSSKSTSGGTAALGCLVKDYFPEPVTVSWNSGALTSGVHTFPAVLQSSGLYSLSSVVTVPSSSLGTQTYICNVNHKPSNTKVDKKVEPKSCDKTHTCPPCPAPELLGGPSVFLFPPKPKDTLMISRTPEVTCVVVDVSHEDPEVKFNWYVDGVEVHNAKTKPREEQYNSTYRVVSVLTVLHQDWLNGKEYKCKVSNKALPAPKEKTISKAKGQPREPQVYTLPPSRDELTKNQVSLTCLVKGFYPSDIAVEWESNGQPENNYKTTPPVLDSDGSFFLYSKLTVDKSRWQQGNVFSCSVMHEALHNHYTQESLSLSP
light: B9 light
notes: as for B10
B17: GpH7-B3 variant A330P / GpL16-k0 (antibody, human IgG1)
heavy: not shown
light: B9 light
notes: as for B10
B18: GpH7-B3 variant I332P / GpL16-k0 (antibody, human IgG1)
heavy: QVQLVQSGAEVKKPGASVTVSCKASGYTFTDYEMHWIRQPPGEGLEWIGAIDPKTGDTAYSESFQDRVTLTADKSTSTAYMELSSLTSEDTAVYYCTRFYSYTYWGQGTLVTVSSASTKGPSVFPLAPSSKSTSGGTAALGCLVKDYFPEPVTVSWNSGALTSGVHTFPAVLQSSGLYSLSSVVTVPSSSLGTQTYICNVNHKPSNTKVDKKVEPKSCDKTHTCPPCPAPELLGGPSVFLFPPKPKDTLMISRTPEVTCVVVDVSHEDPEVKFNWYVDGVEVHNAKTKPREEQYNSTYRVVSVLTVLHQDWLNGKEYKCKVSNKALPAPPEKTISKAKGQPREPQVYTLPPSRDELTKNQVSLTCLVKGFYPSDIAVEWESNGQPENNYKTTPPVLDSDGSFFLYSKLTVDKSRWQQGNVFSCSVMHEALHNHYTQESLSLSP
light: B9 light
notes: as for B10
B19: GpH7-B3 variant A330S / GpL16-k0 (antibody, human IgG1)
heavy: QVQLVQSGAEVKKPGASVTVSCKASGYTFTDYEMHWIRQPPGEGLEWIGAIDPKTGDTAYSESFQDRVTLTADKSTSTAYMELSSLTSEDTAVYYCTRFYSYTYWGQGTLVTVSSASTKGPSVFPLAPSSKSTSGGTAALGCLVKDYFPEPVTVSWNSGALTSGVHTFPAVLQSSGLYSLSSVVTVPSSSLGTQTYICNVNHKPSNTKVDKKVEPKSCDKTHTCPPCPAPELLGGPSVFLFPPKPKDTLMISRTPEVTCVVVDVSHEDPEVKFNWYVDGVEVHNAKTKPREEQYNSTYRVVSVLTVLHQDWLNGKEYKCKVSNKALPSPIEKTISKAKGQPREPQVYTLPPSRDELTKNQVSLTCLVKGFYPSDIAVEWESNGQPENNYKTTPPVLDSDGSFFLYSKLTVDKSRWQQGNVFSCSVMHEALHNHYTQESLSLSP
light: B9 light
notes: as for B10
B20: GpH7-B3 variant I332R / GpL16-k0 (antibody, human IgG1)
heavy: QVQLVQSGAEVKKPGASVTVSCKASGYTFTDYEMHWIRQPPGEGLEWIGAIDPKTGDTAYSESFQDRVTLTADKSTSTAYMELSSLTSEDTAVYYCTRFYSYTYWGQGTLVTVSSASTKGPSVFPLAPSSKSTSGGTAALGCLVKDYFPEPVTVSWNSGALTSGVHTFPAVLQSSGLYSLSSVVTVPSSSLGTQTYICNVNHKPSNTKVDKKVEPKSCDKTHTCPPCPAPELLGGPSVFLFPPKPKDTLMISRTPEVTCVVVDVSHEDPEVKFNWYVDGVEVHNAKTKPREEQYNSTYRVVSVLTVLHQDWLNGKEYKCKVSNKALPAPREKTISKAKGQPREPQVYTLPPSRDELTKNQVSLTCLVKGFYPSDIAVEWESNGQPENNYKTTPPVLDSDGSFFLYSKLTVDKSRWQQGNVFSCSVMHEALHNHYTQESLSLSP
light: B9 light
notes: as for B10
B21: GpH7-B3 variant P329S / GpL16-k0 (antibody, human IgG1)
heavy: not shown
light: B9 light
notes: as for B10

What follows are binders tested against T6, human FcγRIa (human, UniProt P12314 16-292, limits assumed) (assay: SPR (Biacore), FcγR over captured antibody; binding amount relative to IL6R-BF648/IL6R-L x100).
T6 construct: also called FcyRIa; CD64
T6 sequence (P12314 16-292 limits assumed): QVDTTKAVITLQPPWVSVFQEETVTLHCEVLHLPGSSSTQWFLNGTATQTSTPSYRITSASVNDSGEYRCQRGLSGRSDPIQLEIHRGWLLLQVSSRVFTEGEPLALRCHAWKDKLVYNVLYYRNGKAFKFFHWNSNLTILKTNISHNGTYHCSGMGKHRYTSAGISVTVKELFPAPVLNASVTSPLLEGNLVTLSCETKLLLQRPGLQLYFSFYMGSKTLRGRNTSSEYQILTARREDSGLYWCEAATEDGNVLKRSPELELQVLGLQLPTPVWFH

relative binding | Binder
110 % of IL6R-BF648/IL6R-L | B1
98 % of IL6R-BF648/IL6R-L | B2
52 % of IL6R-BF648/IL6R-L | B3
101 % of IL6R-BF648/IL6R-L | B4
118 % of IL6R-BF648/IL6R-L | B5
117 % of IL6R-BF648/IL6R-L | B6
140 % of IL6R-BF648/IL6R-L | B7
117 % of IL6R-BF648/IL6R-L | B8

These binders were tested against T1, human FcγRIIa type H in the same assay as above.

relative binding | Binder
110 % of IL6R-BF648/IL6R-L | B1
97 % of IL6R-BF648/IL6R-L | B2
108 % of IL6R-BF648/IL6R-L | B3
128 % of IL6R-BF648/IL6R-L | B4
135 % of IL6R-BF648/IL6R-L | B5
133 % of IL6R-BF648/IL6R-L | B6
1670 % of IL6R-BF648/IL6R-L | B7
103 % of IL6R-BF648/IL6R-L | B8

Each binder was assayed against T2, human FcγRIIb in the same assay as above.

relative binding | Binder
108 % of IL6R-BF648/IL6R-L | B1
106 % of IL6R-BF648/IL6R-L | B2
119 % of IL6R-BF648/IL6R-L | B3
104 % of IL6R-BF648/IL6R-L | B4
113 % of IL6R-BF648/IL6R-L | B5
110 % of IL6R-BF648/IL6R-L | B6
62 % of IL6R-BF648/IL6R-L | B7
119 % of IL6R-BF648/IL6R-L | B8

Each binder was assayed against T7, human FcγRIIIa type V (human, UniProt P08637 17-208, limits assumed) in the same assay as above.
T7 construct: also called FcyRIIIa; FcγRIIIaV
T7 sequence (P08637 other isoform, or with tags, fused parts or gaps limits assumed): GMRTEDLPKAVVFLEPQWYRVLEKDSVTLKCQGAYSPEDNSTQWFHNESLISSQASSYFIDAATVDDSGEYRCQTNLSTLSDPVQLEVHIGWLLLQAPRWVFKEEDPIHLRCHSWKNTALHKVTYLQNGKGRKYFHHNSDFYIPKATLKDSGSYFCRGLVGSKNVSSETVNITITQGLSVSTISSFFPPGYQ

relative binding | Binder
114 % of IL6R-BF648/IL6R-L | B1
102 % of IL6R-BF648/IL6R-L | B2
120 % of IL6R-BF648/IL6R-L | B3
144 % of IL6R-BF648/IL6R-L | B4
157 % of IL6R-BF648/IL6R-L | B5
145 % of IL6R-BF648/IL6R-L | B6
3350 % of IL6R-BF648/IL6R-L | B7
102 % of IL6R-BF648/IL6R-L | B8

The binders below were run against T8, human FcγRIa (human, UniProt P12314 16-292, limits assumed) (assay: SPR (Biacore), antibody captured, FcγR analyte, 25 C; normalised to captured antibody, GpH7-B3/GpL16-k0 = 100;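 note: antibodies held on sensor chips through immobilized antigen peptide, Protein A, Protein A/G or Protein L, with HBS-EP+ running buffer and FcγR in solution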).
T8 construct: Soluble analyte in SPR; also called hFcgRIa; FcgRIa
T8 sequence (P12314 16-292 limits assumed): as the sequence (P12314 16-292 limits assumed) above
Protocol: (§1) Interaction between each modified antibody and Fcγ receptor prepared in the manner described above was analyzed using the BIACORE™ T100 surface plasmon resonance system (GE Healthcare), BIACORE™ T200 surface plasmon resonance system (GE Healthcare), BIACORE™ A100 surface plasmon resonance system or BIACORE™ 4000 surface plasmon resonance system. HBS-EP+(GE Healthcare) was used for the running buffer, and measurements were carried out at 25° C. The chips used were chips in which antigen peptides, Protein A (Thermo Scientific), Protein A/G (Thermo Scientific) or Protein L (ACTIGEN® protein (Alltech or BioVision) were immobilized on the Series S Sensor Chip CM5 (GE Healthcare) or Series S Sensor Chip CM4 (GE Healthcare) by amine coupling, or chips in which preliminarily biotinylated antigen peptides were allowed to interact and then immobilized on the Series S Sensor Chip SA (certified) (GE Healthcare). The target antibodies were captured on these sensor chips, Fcγ receptor diluted with the running buffer was allowed to interact, followed by measurement of the amount of bound antibody. The amounts bound were compared between antibodies. However, since the amount of Fcγ receptor bound depends on the amount of captured antibody, the values used for comparison were first corrected by dividing the amount of Fcγ receptor bound by the captured amount of each antibody. Through reaction with 10 mM glycine-HCl at pH 1.5, the sensor chips were regenerated by washing off antibody captured on the sensor chips and used repeatedly.
(§2) Binding strength was evaluated according to the following method based on the results of analyzing the interaction with each FcγR. […] That value was then further multiplied by 100, and the resulting value was used as an indicator of relative binding activity to each FcγR.

relative binding activity (parent antibody = 100) | Binder
50 % of control | B9
88 % of control | B10
45 % of control | B11
94 % of control | B12
23 % of control | B13
92 % of control | B14
33 % of control | B15
77 % of control | B16
87 % of control | B17
100 % of control | B18
58 % of control | B19
95 % of control | B20
60 % of control | B21

Molecular target: T3, human FcγRIIa(R) (allotype R131)
Assay: as above
Protocol: as §1, §2

relative binding activity (parent antibody = 100) | Binder
-1 % of control | B9
13 % of control | B10
4 % of control | B11
1 % of control | B12
1 % of control | B13
-1 % of control | B15
12 % of control | B16
42 % of control | B17
34 % of control | B18
0 % of control | B19
28 % of control | B20
0 % of control | B21

The binders below were run against T4, human FcγRIIa(H) (allotype H131) in the same assay as above.
Protocol: as §1, §2

relative binding activity (parent antibody = 100) | Binder
0 % of control | B9
5 % of control | B11
0 % of control | B12
-1 % of control | B13
1 % of control | B14
0 % of control | B15
59 % of control | B16
25 % of control | B17
26 % of control | B18
0 % of control | B19
70 % of control | B20
1 % of control | B21

What follows are binders tested against T5, human FcγRIIb in the same assay as above.
Protocol: as §1, §2

relative binding activity (parent antibody = 100) | Binder
-3 % of control | B9
0 % of control | B11
0 % of control | B12
-2 % of control | B13
0 % of control | B14
-2 % of control | B15
27 % of control | B16
39 % of control | B17
41 % of control | B18
-3 % of control | B19
23 % of control | B20
1 % of control | B21

Each binder was assayed against T9, human FcγRIIIa(F) (allotype F158) (human, UniProt P08637 17-208, limits assumed) in the same assay as above.
T9 construct: also called hFcgRIIIa(F); FcgRIIIaF
Protocol: as §1, §2

relative binding activity (parent antibody = 100) | Binder
-1 % of control | B9
3 % of control | B11
0 % of control | B12
-1 % of control | B13
4 % of control | B14
-1 % of control | B15
56 % of control | B17
14 % of control | B18
0 % of control | B19
61 % of control | B20
1 % of control | B21
